{
  "source": "patent US6844192",
  "about": "(WAKE FOREST UNIVERSITY, dated 2005)",
  "key": {"[1]": {"molecular_target": "adenovirus E1B-55 kDa protein (Ad5) (UniProt P03243)", "test": "cell-based or functional assay"}, "[2]": {"molecular_target": "T1, adenovirus E1B-55 kDa protein (Ad5, UniProt P03243 1-496)", "T1 sequence": "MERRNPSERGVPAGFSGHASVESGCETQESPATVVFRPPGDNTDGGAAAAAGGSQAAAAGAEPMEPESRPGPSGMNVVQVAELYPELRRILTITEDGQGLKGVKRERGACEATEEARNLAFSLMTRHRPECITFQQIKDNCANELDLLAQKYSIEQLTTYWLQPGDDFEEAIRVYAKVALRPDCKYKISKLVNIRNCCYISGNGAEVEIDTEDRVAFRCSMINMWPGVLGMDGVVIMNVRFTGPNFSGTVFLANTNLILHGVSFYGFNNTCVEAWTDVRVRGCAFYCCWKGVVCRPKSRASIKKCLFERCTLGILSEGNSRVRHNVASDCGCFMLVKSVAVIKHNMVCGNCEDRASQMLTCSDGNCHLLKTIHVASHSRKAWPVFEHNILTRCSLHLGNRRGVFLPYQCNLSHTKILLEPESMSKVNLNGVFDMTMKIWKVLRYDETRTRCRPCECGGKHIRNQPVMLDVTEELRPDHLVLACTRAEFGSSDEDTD", "test": "cell-based or functional assay"}},
  "data": [
    {"molecule": "E4orf6 variant R240,244,251A (from UniProt P03239 1-294)", "values": [
      {"measurement": "HeLa cells in which the E1B-55 kDa protein was retained", "setting": "[1]", "result": "> 62 % of cells"},
      {"measurement": "cells in which the E1B-55 kDa protein was relocalized to the nucleus", "setting": "[1]", "result": "60 % of cells"},
      {"measurement": "value for nuclear E1B-55 kDa protein retention", "setting": "[1]", "result": 62, "unit": "%"}
    ]},
    {"molecule": "E4orf6 variant R240,251A (from UniProt P03239 1-294)", "values": [
      {"measurement": "cells with the E1B-55 kDa protein retained in the nucleus", "setting": "[1]", "result": "70 % of cells"}
    ]},
    {"molecule": "E4orf6 variant R240A (from UniProt P03239 1-294)", "values": [
      {"measurement": "cells with the E1B-55 kDa protein retained in the nucleus", "setting": "[1]", "result": "90 % of cells"}
    ]},
    {"molecule": "E4orf6 variant R240E (from UniProt P03239 1-294)", "values": [
      {"measurement": "cells with predominantly cytoplasmic E1B-55 kDa protein", "setting": "[1]", "result": "46 % of cells"},
      {"measurement": "cells with predominantly nuclear E1B-55 kDa protein", "setting": "[1]", "result": "55 % of cells"},
      {"measurement": "cells with uniform distribution of the E1B-55 kDa protein", "setting": "[1]", "result": "4 % of cells"}
    ]},
    {"molecule": "E4orf6 variant R244E (from UniProt P03239 1-294)", "values": [
      {"measurement": "cells with predominantly nuclear E1B-55 kDa protein", "setting": "[1]", "result": "85 % of cells"},
      {"measurement": "value for nuclear E1B-55 kDa protein retention", "setting": "[1]", "result": 91, "unit": "%"}
    ]},
    {"molecule": "E4orf6 variant R248,251A (from UniProt P03239 1-294)", "values": [
      {"measurement": "HeLa cells in which the E1B-55 kDa protein was retained", "setting": "[1]", "result": "> 62 % of cells"},
      {"measurement": "cells with the E1B-55 kDa protein retained in the nucleus", "setting": "[1]", "result": "82 % of cells"},
      {"measurement": "value for nuclear E1B-55 kDa protein retention", "setting": "[1]", "result": 80, "unit": "%"}
    ]},
    {"molecule": "E4orf6 variant R248E (from UniProt P03239 1-294)", "values": [
      {"measurement": "cells with predominantly nuclear E1B-55 kDa protein", "setting": "[1]", "result": "85 % of cells"}
    ]},
    {"molecule": "E4orf6 variant R251A (from UniProt P03239 1-294)", "values": [
      {"measurement": "HeLa cells in which the E1B-55 kDa protein was retained", "setting": "[1]", "result": "> 62 % of cells"},
      {"measurement": "value for nuclear E1B-55 kDa protein retention", "setting": "[1]", "result": 99, "unit": "%"}
    ]},
    {"molecule": "E4orf6 variant R251E (from UniProt P03239 1-294)", "values": [
      {"measurement": "cells with predominantly nuclear E1B-55 kDa protein", "setting": "[1]", "result": "85 % of cells"}
    ]},
    {"molecule": "wild-type adenovirus E4orf6 protein (other) MTTSGVPFGMTLRPTRSRLSRRTPYSRDRLPPFETETRATILEDHPLLPECNTLTMHNVSYVRGLPCSVGFTLIQEWVVPWDMVLTREELVILRKCMHVCLCCANIDIMTSMMIHGYESWALHCHCSSPGSLQCIAGGQVLASWFRMVVDGAMFNQRFIWYREVVNYNMPKEVMFMSSVFMRGRHLIYLRLWYDGHVGSVVPAMSFGYSALHCGILNNIVVLCCSYCADLSEIRVRCCARRTRRLMLRAVRIIAEETTAMLYSCRTERRRQQFIRALLQHHRPILMHDYDSTPM", "values": [
      {"measurement": "value for nuclear E1B-55 kDa protein retention", "setting": "[2]", "result": 100, "unit": "%"}
    ]},
    {"molecule": "E4orf6 variant R241A (other) MTTSGVPFGMTLRPTRSRLSRRTPYSRDRLPPFETETRATILEDHPLLPECNTLTMHNVSYVRGLPCSVGFTLIQEWVVPWDMVLTREELVILRKCMHVCLCCANIDIMTSMMIHGYESWALHCHCSSPGSLQCIAGGQVLASWFRMVVDGAMFNQRFIWYREVVNYNMPKEVMFMSSVFMRGRHLIYLRLWYDGHVGSVVPAMSFGYSALHCGILNNIVVLCCSYCADLSEIRVRCCARATRRLMLRAVRIIAEETTAMLYSCRTERRRQQFIRALLQHHRPILMHDYDSTPM", "values": [
      {"measurement": "value for nuclear E1B-55 kDa protein retention", "setting": "[2]", "result": 72, "unit": "%"}
    ]},
    {"molecule": "E4orf6 variant R241E (other) MTTSGVPFGMTLRPTRSRLSRRTPYSRDRLPPFETETRATILEDHPLLPECNTLTMHNVSYVRGLPCSVGFTLIQEWVVPWDMVLTREELVILRKCMHVCLCCANIDIMTSMMIHGYESWALHCHCSSPGSLQCIAGGQVLASWFRMVVDGAMFNQRFIWYREVVNYNMPKEVMFMSSVFMRGRHLIYLRLWYDGHVGSVVPAMSFGYSALHCGILNNIVVLCCSYCADLSEIRVRCCARETRRLMLRAVRIIAEETTAMLYSCRTERRRQQFIRALLQHHRPILMHDYDSTPM", "values": [
      {"measurement": "value for nuclear E1B-55 kDa protein retention", "setting": "[2]", "result": 0.8, "unit": "%"}
    ]}
  ]
}
